Results taken from patent publication US20220064312A1 (SHIONOGI, published 2022).

What was measured:
hCCR8 (N188A) = hCCR8 (N188A) (human, UniProt P51685 1-355); test: flow cytometry, transfected Expi293 cells
Description: (§1) In addition to the chimeras of human CCR4 and the point mutants at the N-terminal region of human CCR8 produced in Example 3, binding evaluation was also performed for point mutants at loop1 and loop2 regions of human CCR8. […] After reacting at room temperature for 3 hours, it was reacted with Alexa488-labeled Anti-human IgG antibody (Thermo Fisher Scientific) and flow cytometry analysis was performed.
(§2) In comparison to human CCR8, a mutant having binding activity of 70% or less was indicated as Δ and a mutant having binding activity of 20% or less was indicated as x.

hCCR8 (S23A) = hCCR8 (S23A) (human, UniProt P51685 1-355); test: flow cytometry, transfected Expi293 cells
Description: as §1, §2

hCCR8 (T13A) = hCCR8 (T13A) (human, UniProt P51685 1-355); test: flow cytometry, transfected Expi293 cells
Description: as §1, §2

hCCR8 (S22A) = hCCR8 (S22A) (human, UniProt P51685 1-355); test: flow cytometry, transfected Expi293 cells
Description: as §1, §2

hCCR8 (I20A) = biological target: T1, hCCR8 (I20A) (human, UniProt P51685 1-355); test: flow cytometry, transfected Expi293 cells
T1 construct: also called hCCR8 (120A)
Description: as §1, §2

hCCR8 (L181A) = hCCR8 (L181A) (human, UniProt P51685 1-355); test: flow cytometry, transfected Expi293 cells
Description: as §1, §2

loop3 hCCR4-hCCR8 = biological target: T2, loop3 hCCR4-hCCR8 (human, UniProt P51685 1-355); test: flow cytometry, transfected Expi293 cells
T2 construct: chimera on Expi293 cells; hCCR8 ranges derived
Description: as §1, §2

hCCR8 (T10A) = hCCR8 (T10A) (human, UniProt P51685 1-355); test: flow cytometry, transfected Expi293 cells
Description: as §1, §2

hCCR8 (K193A) = hCCR8 (K193A) (human, UniProt P51685 1-355); test: flow cytometry, transfected Expi293 cells
Description: as §1, §2

hCCR8 (L5A) = biological target: T3, hCCR8 (L5A) (human, UniProt P51685 1-355); test: flow cytometry, transfected Expi293 cells
T3 construct: also called hCCR8 (LSA)
Description: as §1, §2

hCCR8 (T11A) = hCCR8 (T11A) (human, UniProt P51685 1-355); test: flow cytometry, transfected Expi293 cells
Description: as §1, §2

hCCR8 (K35A) [1] = biological target: T4, hCCR8 (K35A) (human, UniProt P51685 1-355); test: flow cytometry, transfected Expi293 cells
Description: as §1, §2

hCCR8 (Y15A) = hCCR8 (Y15A) (human, UniProt P51685 1-355); test: flow cytometry, transfected Expi293 cells
Description: as §1, §2

hCCR8 (L29A) = hCCR8 (L29A) (human, UniProt P51685 1-355); test: flow cytometry, transfected Expi293 cells
Description: as §1, §2

loop1 hCCR4-hCCR8 [2] = biological target: T5, loop1 hCCR4-hCCR8 (human, UniProt P51685 1-355); test: flow cytometry, transfected Expi293 cells
T5 construct: chimera on Expi293 cells; hCCR8 ranges derived; also called loop 1-human CCR4-substituted human CCR8
Description: as §1, §2

loop2 hCCR4-hCCR8 [3] = biological target: T6, loop2 hCCR4-hCCR8 (human, UniProt P51685 1-355); test: flow cytometry, transfected Expi293 cells
T6 construct: chimera on Expi293 cells; hCCR8 ranges derived; also called loop2-human CCR4-substituted human CCR8
Description: as §1, §2

human CCR4 = biological target: T7, human CCR4 (human, UniProt P51679 1-360); test: flow cytometry, transfected Expi293 cells
T7 construct: also called hCCR4
T7 sequence: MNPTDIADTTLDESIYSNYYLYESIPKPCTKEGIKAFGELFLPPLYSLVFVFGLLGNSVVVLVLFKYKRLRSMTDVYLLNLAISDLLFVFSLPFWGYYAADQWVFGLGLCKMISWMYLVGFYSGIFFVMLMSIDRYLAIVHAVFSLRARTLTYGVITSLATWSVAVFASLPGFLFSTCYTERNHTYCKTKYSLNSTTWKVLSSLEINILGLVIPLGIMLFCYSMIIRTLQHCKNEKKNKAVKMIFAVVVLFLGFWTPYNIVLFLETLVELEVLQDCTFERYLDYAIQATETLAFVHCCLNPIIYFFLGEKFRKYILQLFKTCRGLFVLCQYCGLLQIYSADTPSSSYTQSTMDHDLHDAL

hCCR8 (Y17A) = hCCR8 (Y17A) (human, UniProt P51685 1-355); test: flow cytometry, transfected Expi293 cells
Sequence of hCCR8 (Y17A) (P51685 whole entry Y17A): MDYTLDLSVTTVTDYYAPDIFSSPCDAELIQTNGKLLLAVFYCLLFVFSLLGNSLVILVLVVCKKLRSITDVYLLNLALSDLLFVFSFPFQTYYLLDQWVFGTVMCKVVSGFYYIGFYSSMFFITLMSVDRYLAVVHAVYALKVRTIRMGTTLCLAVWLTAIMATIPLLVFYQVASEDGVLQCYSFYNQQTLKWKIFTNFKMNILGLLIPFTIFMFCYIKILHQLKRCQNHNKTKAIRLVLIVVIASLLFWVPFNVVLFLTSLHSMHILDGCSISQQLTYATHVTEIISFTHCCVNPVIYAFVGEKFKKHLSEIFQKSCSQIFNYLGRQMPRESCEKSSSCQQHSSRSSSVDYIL

N-ter hCCR4-hCCR8 = biological target: T8, N-ter hCCR4-hCCR8 (human); test: flow cytometry, transfected Expi293 cells
T8 construct: chimera on Expi293 cells; remaining hCCR8 ranges derived from the stated swapped ranges and the 355-residue length; also called N-terminal region human CCR4-substituted human CCR8
T8 chain: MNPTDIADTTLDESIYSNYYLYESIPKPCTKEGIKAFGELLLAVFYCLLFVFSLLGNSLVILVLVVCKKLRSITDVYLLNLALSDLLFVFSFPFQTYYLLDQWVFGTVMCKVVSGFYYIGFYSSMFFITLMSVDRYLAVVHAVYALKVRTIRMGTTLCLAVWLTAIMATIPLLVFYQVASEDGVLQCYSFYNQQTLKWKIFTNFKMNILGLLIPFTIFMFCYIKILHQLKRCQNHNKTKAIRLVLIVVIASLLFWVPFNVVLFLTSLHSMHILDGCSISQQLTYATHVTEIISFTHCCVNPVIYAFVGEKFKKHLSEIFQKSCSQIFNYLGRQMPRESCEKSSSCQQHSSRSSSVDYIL

mouse CCR8 = biological target: T9, mouse CCR8 (mouse, UniProt P56484 1-353); test: flow cytometry, transfected Expi293 cells
T9 construct: also called mCCR8
T9 sequence: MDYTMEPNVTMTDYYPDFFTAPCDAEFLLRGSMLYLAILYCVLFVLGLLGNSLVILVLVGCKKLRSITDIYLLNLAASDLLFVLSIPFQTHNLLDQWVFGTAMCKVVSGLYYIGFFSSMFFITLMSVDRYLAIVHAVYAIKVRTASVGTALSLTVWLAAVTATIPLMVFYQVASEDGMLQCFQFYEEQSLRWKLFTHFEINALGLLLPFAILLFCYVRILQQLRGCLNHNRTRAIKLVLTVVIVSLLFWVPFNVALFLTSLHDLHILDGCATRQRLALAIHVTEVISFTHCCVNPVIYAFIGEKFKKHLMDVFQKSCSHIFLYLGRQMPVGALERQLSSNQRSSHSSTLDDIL

hCCR8 (K35A) [4] = biological target: T4, hCCR8 (K35A); test: flow cytometry, transfected Expi293 cells; remark: listed apart in the source
human CCR8 [5] = biological target: T10, human CCR8 (human, UniProt P51685 1-355); test: cell-based or functional assay
T10 sequence (P51685 whole entry): as the sequence (P51685 whole entry Y17A) above, with A17Y counted along it

loop1 hCCR4-hCCR8 [6] = biological target: T5, loop1 hCCR4-hCCR8; test: flow cytometry, transfected Expi293 cells; Δ = significantly reduced vs hCCR8
loop2 hCCR4-hCCR8 [7] = biological target: T6, loop2 hCCR4-hCCR8; test: as above
human CCR8 [8] = biological target: T10, human CCR8; test: cell-based or functional assay; remark: listed apart in the source

B1: h19D7 (IGKV3-20/IGHV3-15 T94R) (antibody, V domains shown)
VH: EVQLVESGGALVKPGGSLRLSCAASGFTFSTYAMYWVRQAPGKGLEWVGRIRSKSNNYATYYADSVKDRFTISRDDSKNTLYLQMNSLKTEDTAVYYCTRGGYGNYRYAMDYWGQGTTVTVSS
VL: EIVLTQSPGTLSLSPGERATLSCRSSKSLLHSNGNTYLYWYQQKPGQAPRLLIYRVSNLASGIPDRFSGSGSGTDFTLTISRLEPEDFAVYYCMQHLEYPFTFGQGTKLEIK
notes: humanized; detected with anti-human IgG
binding activity in comparison to human CCR8 (hCCR8 (N188A)): ≤ 70% | binding activity in comparison to human CCR8 (hCCR8 (S23A)): ≤ 70% | binding activity in comparison to human CCR8 (hCCR8 (T13A)): ≤ 70% | binding activity in comparison to human CCR8 (hCCR8 (S22A)): ≤ 70% | binding activity in comparison to human CCR8 (hCCR8 (I20A)): ≤ 70% | binding activity in comparison to human CCR8 (hCCR8 (L181A)): ≤ 70% | binding activity in comparison to human CCR8 (loop3 hCCR4-hCCR8): ≤ 70% | binding activity in comparison to human CCR8 (hCCR8 (T10A)): ≤ 70% | binding activity in comparison to human CCR8 (hCCR8 (K193A)): ≤ 70% | binding activity in comparison to human CCR8 (hCCR8 (L5A)): ≤ 70% | binding activity in comparison to human CCR8 (hCCR8 (T11A)): ≤ 70% | binding activity in comparison to human CCR8 (hCCR8 (K35A) [1]): ≤ 70% | binding activity in comparison to human CCR8 (hCCR8 (Y15A)): ≤ 70% | binding activity in comparison to human CCR8 (hCCR8 (L29A)): ≤ 70% | binding activity in comparison to human CCR8 (loop1 hCCR4-hCCR8 [2]): ≤ 70% | binding activity in comparison to human CCR8 (loop2 hCCR4-hCCR8 [3]): ≤ 70%

B2: 1H4 (antibody, V domains shown)
VH: EVQLVESGGRLVQPKGSLKLSCAASGFTFNTYAMYWIRQAPGKGLEWVARIRSKSNNYATYYADSVKDRFTISRDDSQSMLYLQMNNLKTEDTAMYYCVRARFYYSDYGYAMDYWGQGTSVTVSS
VL: DIVMTQAAPSVPVTPGESVSISCRSSKSLLHSNGNTYLYWFLQRPGQSPQLLIYRMSNLASGVPDRFSASGSGTAFTLRISRVEAEDVGVYYCMQHLEYPLTFGAGTKLELKR
notes: mouse hybridoma antibody
binding result (human CCR4): no binding | binding result (hCCR8 (Y17A)): no binding | binding result (N-ter hCCR4-hCCR8): no binding | binding result (mouse CCR8): no binding | binding result (hCCR8 (K35A) [4]): no binding | Neutralizing Activity IC50 (nM), Ca2+ influx by 100 nM hCCL1 (human CCR8 [5]): 0.32 nM | binding result (loop1 hCCR4-hCCR8 [6]): binds | binding result (loop2 hCCR4-hCCR8 [7]): binds | IC50 (nM), Ca2+ influx by 200 nM hCCL1 (human CCR8 [8]): 0.36 nM
